Earlier results in PMC4351059.

Target: Cys215 (UniProt position 215, PVVVHCSAGIG)
Conditions: not stated (reduced free enzyme implied)

In the case of “Protein-tyrosine phosphatase 1B (PTP1B) (Homo sapiens (as described in this article; the cited source title says 'mammalian protein-tyrosine-phosphatase PTP1'))”, the pKa is listed as 5.6.
